Publication PMC3985343 (The Laryngoscope, 2013)

Biological target: Wildtype His6-Gαi1 (UniProt P63096 1-354)
Assay: SPR

Sequence of Wildtype His6-Gαi1 (P63096 whole entry): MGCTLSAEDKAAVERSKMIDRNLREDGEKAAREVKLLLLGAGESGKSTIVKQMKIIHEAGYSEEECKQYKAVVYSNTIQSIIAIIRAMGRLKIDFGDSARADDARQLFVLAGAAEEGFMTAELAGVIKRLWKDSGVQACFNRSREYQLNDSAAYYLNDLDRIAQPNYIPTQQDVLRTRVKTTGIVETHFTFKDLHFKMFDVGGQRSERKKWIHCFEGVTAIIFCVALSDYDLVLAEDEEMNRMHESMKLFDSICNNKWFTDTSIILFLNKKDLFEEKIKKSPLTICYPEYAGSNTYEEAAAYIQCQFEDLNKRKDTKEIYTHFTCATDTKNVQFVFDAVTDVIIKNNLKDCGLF

B1: RGS21 (regulator of G protein signaling-21), wildtype, His6 tag cleaved (natural protein, human, UniProt Q2M5E4 1-152, looked up)
chain: MPVKCCFYRSPTAETMTWSENMDTLLANQAGLDAFRIFLKSEFSEENVEFWLACEDFKKTKNADKIASKAKMIYSEFIEADAPKEINIDFGTRDLISKNIAEPTLKCFDEAQKLIYCLMAKDSFPRFLKSEIYKKLVNSQQVPNHKKWLPFL
**Q.** With B1 as the binder, how does the Kd read?
**A.** The Kd was 57 nM.
